Experimental data taken from patent US12234269B2, “Osteogenic biomaterial” (Northeast Ohio Medical University, priority 2014, dated 2025).

T1: CD44 (Mus musculus, UniProt P15379)
T1 construct: biotinylated rOA added onto MC3T3-E1 cells; endogenous in cells; host or cells: MC3T3-E1
T1 sequence (P15379 23-778): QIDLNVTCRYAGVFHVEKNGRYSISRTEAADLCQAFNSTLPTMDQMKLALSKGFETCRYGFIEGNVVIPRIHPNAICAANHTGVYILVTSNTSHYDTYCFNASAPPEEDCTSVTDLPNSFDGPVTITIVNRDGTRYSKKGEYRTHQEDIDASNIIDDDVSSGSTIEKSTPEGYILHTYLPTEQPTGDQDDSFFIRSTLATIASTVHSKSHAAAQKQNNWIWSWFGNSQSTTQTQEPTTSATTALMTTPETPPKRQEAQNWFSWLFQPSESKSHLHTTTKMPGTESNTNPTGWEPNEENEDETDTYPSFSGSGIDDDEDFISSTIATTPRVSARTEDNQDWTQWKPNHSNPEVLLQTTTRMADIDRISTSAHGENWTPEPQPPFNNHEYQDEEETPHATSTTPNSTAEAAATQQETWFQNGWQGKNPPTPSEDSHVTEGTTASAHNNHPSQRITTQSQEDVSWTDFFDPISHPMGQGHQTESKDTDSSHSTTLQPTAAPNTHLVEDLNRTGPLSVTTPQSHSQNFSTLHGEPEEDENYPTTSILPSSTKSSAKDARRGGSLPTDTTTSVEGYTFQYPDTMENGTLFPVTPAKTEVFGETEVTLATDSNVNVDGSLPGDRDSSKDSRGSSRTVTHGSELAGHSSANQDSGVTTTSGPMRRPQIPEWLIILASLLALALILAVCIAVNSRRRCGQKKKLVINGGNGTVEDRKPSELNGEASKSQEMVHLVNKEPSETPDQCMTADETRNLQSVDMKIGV


How the values were obtained:
[1] = Osteogenic activity of the peptide fragment
Text: A preferred osteoactivin active peptide fragment for use in the present invention is the amino acid sequence LAPFSRGDREKDPLLQDK (SEQ ID NO: 1). […] Accordingly, in some embodiments, shorter sections of SEQ ID NO: 1 consisting of 6 or 12 amino acids can be used.

[2] = tested on: critical size defects in bilateral distal femurs; experiment: Sheep model for cancellous bone healing (critical size defect in distal femur, OA-soaked collagen sponge); format: in vivo, sheep (Ovis aries); details: for radiographic analysis: regeneration of bone at the defect site: vs control femurs
Text: Thus, the sheep model provides a way to study the effect of OA on osteogenesis by inducing critical size defects into the long bones of the animals. […] Approval of the Northeast Ohio Medical University Institutional Animal Care and Use Committee (IACUC) was obtained prior to the start of this study. Six (6) male sheep (Ovis aries) between ages 2-3 years old were used, each with a critical size defect (25 mm in depth×11 mm in diameter) drilled into bilateral hind limb distal femurs. The surgical protocol utilized was based on previous work done to develop a model for cancellous bone healing (Malhotra et al, Front Surg. 2014 Sep. 8; 1:37). This method allowed for high quality standardization and sterility processes across each sheep. […] Martini et al., Comp Med. 2001 August; 51(4):292-9; Pearce et al., Eur Cell Mater. 2007 Mar. 2; 13:1-10. The procedures were performed by an orthopedic surgeon. Once under appropriate anesthesia, one femur defect (left hindlimb) was drilled with a cannulated acorn drill (Stryker) and packed with an PBS absorbable collagen sponge (Medline Industries) without OA protein and thus functioned as a control, while the other defect (right hindlimb) was filled with either a low dose (10 μg), or high dose (50 μg) recombinant OA-soaked collagen sponge (R&D Systems). Three sheep received the high dose OA while two received the low dose OA, and one was left as a control. The animals were allowed to recover and then terminated after a period of 10 weeks. The femurs were harvested for x-ray (General Electric) and μCT (Scanco) imaging. Blood and urine samples were collected for CBC, CMP and urinalysis (ANTECH Diagnostics). Tissue biopsies were taken from heart, lung, liver, spleen, kidney, thyroid gland, adrenal gland, and skeletal muscle for RNA and histological analyses during post-mortem dissection.

[3] = CBC, CMP, urinalysis and histological sampling of OA-treated sheep; format: in vivo, sheep (Ovis aries)
Text: Approval of the Northeast Ohio Medical University Institutional Animal Care and Use Committee (IACUC) was obtained prior to the start of this study. Six (6) male sheep (Ovis aries) between ages 2-3 years old were used, each with a critical size defect (25 mm in depth×11 mm in diameter) drilled into bilateral hind limb distal femurs. The surgical protocol utilized was based on previous work done to develop a model for cancellous bone healing (Malhotra et al, Front Surg. 2014 Sep. 8; 1:37). This method allowed for high quality standardization and sterility processes across each sheep. […] Martini et al., Comp Med. 2001 August; 51(4):292-9; Pearce et al., Eur Cell Mater. 2007 Mar. 2; 13:1-10. The procedures were performed by an orthopedic surgeon. Once under appropriate anesthesia, one femur defect (left hindlimb) was drilled with a cannulated acorn drill (Stryker) and packed with an PBS absorbable collagen sponge (Medline Industries) without OA protein and thus functioned as a control, while the other defect (right hindlimb) was filled with either a low dose (10 μg), or high dose (50 μg) recombinant OA-soaked collagen sponge (R&D Systems). Three sheep received the high dose OA while two received the low dose OA, and one was left as a control. The animals were allowed to recover and then terminated after a period of 10 weeks. […]

[4] = molecular target: T1, CD44; experiment: Binding of biotinylated rOA on MC3T3-E1 cells (immunofluorescence, immunoprecipitation, blot for CD44)
Text: FIG. 3(A-C) provides images showing osteoactivin binds to CD44 in bone cells. (A) Silver staining and mass spectroscopy analysis of biotinylated rOA added onto MC3T3-E1 cells.

[5] = tested on: bone segmental defect; experiment: Local delivery in a model of bone segmental defect; format: in vivo
Text: It is synthesized and secreted by osteoblasts where it acts as signaling molecule to promote osteoblast differentiation and function. […] Research has also shown that OA is involved in mouse and human stem cells differentiation to bone cells, and that OA is responsible to transdifferentiate muscle cells to bone forming osteoblasts. The receptor for OA in bone and mesenchymal stem cells is CD44. OA induces differentiation of mesenchymal stem cells to bone cells through CD44.

[6] = tested on: bone defect; details: at 4 weeks; none of the control animals showed complete bone fill; cited from earlier work

Row | Molecule | osteogenic activity [1] | radiographs and μCT of the femur defect site ([2]; 50 μg OA, after 10 weeks, compared to control (FIG. 2)) | bone healing and regeneration (radiographic, μCT imaging and histological analysis) ([2]; OA-soaked absorbable collagen sponge vs defect only or collagen sponge alone, n=6) | Micro-CT bone volume and density of the regenerated area ([2]; OA-treated defect sites vs control, 10 weeks) | radiographic analysis: regeneration of bone at the defect site ([2]; high dose (50 μg) recombinant OA-soaked collagen sponge, 10 weeks) | radiographic analysis: regeneration of bone at the defect site ([2]; low dose (10 μg) recombinant OA-soaked collagen sponge, 10 weeks) | adverse systemic effects per laboratory studies or histological sampling ([3]; administered locally, sheep) | CBC, CMP and urinalysis ([3]; control vs OA-treated sheep) | Immunoprecipitation of biotinylated rOA pulled out with streptavidin beads and blotted for CD44 ([4]; MC3T3-E1 cells) | Immunofluorescence of CD44 and OA ([4]; bone cells) | bone regeneration [5] | animals showing complete bone fill [6] [%]
1 | LAPFSRGDREKDPLLQDK (listed as Homo sapiens) [SEQ ID NO: 1] | demonstrated the osteogenic activity |  |  |  |  |  |  |  |  |  |  | 
2 | OA: 572 amino acid transmembrane glycoprotein encoded by the GPNMB gene; recombinant protein (R&D Systems) soaked into collagen sponge (protein, UniProt Q14956 23-572, looked up) Transmembrane glycoprotein NMB: KRFHDVLGNERPSAYMREHNQLNGWSSDENDWNEKLYPVWKRGDMRWKNSWKGGRVQAVLTSDSPALVGSNITFAVNLIFPRCQKEDANGNIVYEKNCRNEAGLSADPYVYNWTAWSEDSDGENGTGQSHHNVFPDGKPFPHHPGWRRWNFIYVFHTLGQYFQKLGRCSVRVSVNTANVTLGPQLMEVTVYRRHGRAYVPIAQVKDVYVVTDQIPVFVTMFQKNDRNSSDETFLKDLPIMFDVLIHDPSHFLNYSTINYKWSFGDNTGLFVSTNHTVNHTYVLNGTFSLNLTVKAAAPGPCPPPPPPPRPSKPTPSLATTLKSYDSNTPGPAGDNPLELSRIPDENCQINRYGHFQATITIVEGILEVNIIQMTDVLMPVPWPESSLIDFVVTCQGSIPTEVCTIISDPTCEITQNTVCSPVDVDEMCLLTVRRTFNGSGTYCVNLTLGDDTSLALTSTLISVPDRDPASPLRMANSALISVGCLAIFVTVISLLVYKKHKEYNPIENSPGNVVRSKGLSVFLNRAKAVFFPGNQEKDPLLKNQEFKGVS |  | regenerated bone | significantly accelerated bone healing and regeneration | significant increase | complete regeneration of bone at the defect site | complete regeneration of bone at the defect site | no apparent adverse systemic effects | no apparent abnormalities | OA-CD44 interaction | colocalization along the cell membrane | stimulates bone regeneration | 70
